A short description of data set [1]: Fe retained in sedimented fraction of suspended salt (AES/ICP). It is filed as physicochemical. The protocol:
The prepared FePA as described in Example 3 was suspended either at pH 2 or at pH 5,5 in a concentration of 35.8 g per liter. After sedimentation, the supernatant fraction of both suspensions was analysed by AES/ICP.
Subsequently, the suspension of pH=2 was centrifuged 10 minutes at 6000 rpm at room temperature. The pellet was dissolved in 15 g concentrated […] and the solution was analyzed by AES/ICP.
This procedure was repeated with iron phosphate. This salt was prepared in the same way as the preparation of the essential cation phytates: the cation was dissolved as its sulfate, and subsequently precipitated with a basic solution of sodium phosphate. The precipitate was collected and washed.

Data set [2] is described as follows: Mineral partitioning in ground Cruesli with added FePA and/or phytase (AES-ICP). Type of data set: biochemical. The following applies: phytase 115 FTU/g. The method, then:
0.1 g of this preparation was added to 20 g ground Cruesli™ (Quaker Foods & Beverages). […] […] The suspension was incubated at 37° C. with constant stirring for 4 h, and subsequently centrifuged for 20 minutes at 16000 rpm and 4° C. After centrifugation, the sediment and the supernatant fraction were separated, weighed and analyzed by AES-ICP to determine their phosphorus, calcium, magnesium, zinc and iron content. Control suspensions without phytase activity (but with the FePA), and without both FePA and phytase underwent the same procedure.

The conditions of data set [3]: characteristic stomach pH-values; cited from earlier work.
Data set [4] is described as follows: Mineral partitioning in ground Cruesli fractions with added phytase activity (AES-ICP). Type of data set: biochemical. The method, then: Various phytase preparations are commercially available. We have used the liquid formulation NATUPHOS™ 5000 L (DSM, Delft, The Netherlands). Again we used ground Cruesli™ (Quaker Foods & Beverages) as model phytate-containing foodstuff. About 20 grams ground Cruesli™ was suspended in two separate lots of 40 g acetate buffer (0.25 M, pH 5.5, 37° C.). To one of the lots, 1.2 g of the phytase preparation was added, to achieve a final activity of 100 FTU/g. The suspensions were incubated at 37° C. with constant stirring for 1,5 h, and subsequently centrifuged for 20 minutes at 16000 rpm and 4° C. After centrifugation the sediment and the supernatant fraction were separated, weighed and analyzed by AES-ICP to determine their phosphorus, calcium, magnesium and zinc content.
The procedure for this example was the same as for Example 6, but a lower final phytase activity in the incubation was used: 1 FTU/g, instead of 100. The incubation time was lowered to 1 hour.
The procedure for this example was the same as for Example 7, but at a lower pH value and a longer incubation time. This was done to simulate the conditions existant in the stomach. We looked specifically at iron, because iron salts are believed to be particularly poorly soluble at higher pH values, making breakdown in the stomach an attractive option. Iron concentrations were determined by AES-ICP.

The nature of data set [5]: Phytase activity on different substrates (method of Engelen et al.). It is filed as biochemical. Conditions: 37° C.; for Activity: incubation 60 minutes. The protocol:
The activity of Aspergillus niger phytase (NATUPHOS™) was tested against NaPA and CaPA. The influence of the metal in the phytate source on the phytase activity (37° C. using an incubation time of 60 minutes) was investigated. The rate of phytate hydrolysis was determined using the analytical method described by Engelen et al., J. AOAC Int. 77:760-764 (1994).

[6] abbreviates: incubation pH 2, 37° C., 4 h, where added: Fe-phytate 450 mg/kg.
Where [7] appears, read: incubation pH <1, where added: Fe-phytate 450 mg/kg.
The mark [8] stands for this setting: incubation pH 5.5, where added: Fe-phytate 450 mg/kg.
Setting [9] is: pH 2, 37° C., 2 h, phytase 1 FTU/g.
The mark [10] stands for this setting: pH 5.5, 37° C., 1 h, phytase 1 FTU/g.
[11] abbreviates: pH 5.5, 37° C., 1.5 h, phytase 100 FTU/g.

For Iron-phytate [Fe-phytate], the “Fe retained in the sedimented fraction” value in data set [1] (suspended at pH 2) and in data set [1] (suspended at pH 5.5) was “more than 90%” throughout. Further, the “Percentage of mineral in supernatant fraction, Iron” value was 10% in data set [2] (setting [6]) and 23% in data set [2] (setting [7]). The “Percentage of mineral in supernatant fraction, Phosphorus” value in data set [2] (setting [6]) was determined as 9.6%; in data set [2] (setting [7]), 68%.

For the molecule iron phosphate [reference compound], the results for the “Fe retained in the sedimented fraction” value in data set [1] (suspended at pH 2) and in data set [1] (suspended at pH 5.5) were “less than 10%” and “more than 90%”, respectively.

B1: phytase: Phytase from A. niger commercialized under the trade name NATUPHOS; liquid (5000 L) and granulated (5000 G) formulations, 5000 FTU/g (protein, UniProt P34752 24-467, looked up)
Phytase A: ASRNQSSCDTVDQGYQCFSETSHLWGQYAPFFSLANESVISPEVPAGCRVTFAQVLSRHGARYPTDSKGKKYSALIEEIQQNATTFDGKYAFLKTYNYSLGADDLTPFGEQELVNSGIKFYQRYESLTRNIVPFIRSSGSSRVIASGKKFIEGFQSTKLKDPRAQPGQSSPKIDVVISEASSSNNTLDPGTCTVFEDSELADTVEANFTATFVPSIRQRLENDLSGVTLTDTEVTYLMDMCSFDTISTSTVDTKLSPFCDLFTHDEWINYDYLQSLKKYYGHGAGNPLGPTQGVGYANELIARLTHSPVHDDTSSNHTLDSSPATFPLNSTLYADFSHDNGIISILFALGLYNGTKPLSTTTVENITQTDGFSSAWTVPFASRLYVEMMQCQAEQEPLVRVLVNDRVVPLHGCPVDALGRCTRDSFVRGLSFARSGGDWAECFA
For the molecule B1, in data set [3], the “residual activity, % of optimal activity” value is “about 50%”. Moreover, in data set [2] (setting [8]), the “Percentage of mineral in supernatant fraction, Iron” value was 6% and the “Percentage of mineral in supernatant fraction, Phosphorus” value amounted to 45%. Further, in data set [4] (setting [9]), the “% of mineral in supernatant fraction, Iron” value is recorded as 14% and the “% of mineral in supernatant fraction, Phosphorus” value came to 33%. Further, in data set [4] (setting [10]), the “% of mineral in supernatant fraction, Calcium” value was 30%; the “% of mineral in supernatant fraction, Magnesium” value is on record as 36%; the “% of mineral in supernatant fraction, Phosphorus” value came out at 30%; the “% of mineral in supernatant fraction, Zinc” value was 22%. Further, in data set [4] (setting [11]), the “% of mineral in supernatant fraction, Calcium” value is listed as 40%; the “% of mineral in supernatant fraction, Magnesium” value is 49%; the “% of mineral in supernatant fraction, Phosphorus” value is reported as 42%; the “% of mineral in supernatant fraction, Zinc” value is given as 19%. Also, the “activity of phytase on sodium and on calcium phytate compared” value in data set [5] (60 minutes) is “equivalent”. Moreover, the Activity in data set [5] (substrate 4.6 mM calcium phytate) is reported as 3.12 * 10^5 FTU/g. Besides, the Activity in data set [5] (substrate 5.1 mM calcium phytate) is reported as 3.07 * 10^5 FTU/g. Further, the Activity in data set [5] (substrate 5.1 mM sodium phytate) was 3.06 * 10^5 FTU/g. Moreover, in data set [5] (substrate 5.6 mM calcium phytate), the Activity is recorded as 3.10 * 10^5 FTU/g.
